Assay results: the supplement of paper PMC10567573

B1: ZNF511 (parent)
chain: HLYPADFRFDKPKKSRSPASAEAP

Variants of: B1
Experiment: protein stability index of a GFP-peptide fusion (GPS, HEK-293T) (PSI 1-6); higher = more stable
Conditions: c terminus: a fixed tail appended
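Further: lentivirally expressed fusions sorted by FACS into six bins by GFP to DsRed ratio, PSI derived from sequencing read proportions per bin multiplied by bin number.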

Question: With HLSPADFRFDKPKKSRSPASAEAP [Y3S] as the variant, how does the protein stability index read?
Answer: 3.64

Question: For HLTPADFRFDKPKKSRSPASAEAP [Y3T], which protein stability index is on record?
Answer: 4.65

Question: With HLVPADFRFDKPKKSRSPASAEAP [Y3V] as the variant, how does the protein stability index read?
Answer: 3.81

Question: With HLWPADFRFDKPKKSRSPASAEAP [Y3W] as the variant, how does the protein stability index read?
Answer: 3.71

Question: With HLYAADFRFDKPKKSRSPASAEAP [P4A] as the variant, how does the protein stability index read?
Answer: 3.96

Question: Which protein stability index does the source give for HLYCADFRFDKPKKSRSPASAEAP [P4C] here?
Answer: 3.54

Question: Which protein stability index does the source give for HLYDADFRFDKPKKSRSPASAEAP [P4D] here?
Answer: 4.22

Question: For HLYEADFRFDKPKKSRSPASAEAP [P4E], which protein stability index is on record?
Answer: 4.33

Question: With HLYFADFRFDKPKKSRSPASAEAP [P4F] as the variant, how does the protein stability index read?
Answer: 2.85

Question: For HLYGADFRFDKPKKSRSPASAEAP [P4G], which protein stability index is on record?
Answer: 3.21

Question: With HLYHADFRFDKPKKSRSPASAEAP [P4H] as the variant, how does the protein stability index read?
Answer: 3.95

Question: With HLYIADFRFDKPKKSRSPASAEAP [P4I] as the variant, how does the protein stability index read?
Answer: 3.56

Question: For HLYKADFRFDKPKKSRSPASAEAP [P4K], which protein stability index is on record?
Answer: 4.5

Question: For HLYLADFRFDKPKKSRSPASAEAP [P4L], which protein stability index is on record?
Answer: 3.56

Question: With HLYMADFRFDKPKKSRSPASAEAP [P4M] as the variant, how does the protein stability index read?
Answer: 3.43

Question: With HLYNADFRFDKPKKSRSPASAEAP [P4N] as the variant, how does the protein stability index read?
Answer: 3.78

Question: Which protein stability index does the source give for HLYQADFRFDKPKKSRSPASAEAP [P4Q] here?
Answer: 3.94

Question: Which protein stability index does the source give for HLYRADFRFDKPKKSRSPASAEAP [P4R] here?
Answer: 3.73

Question: With HLYSADFRFDKPKKSRSPASAEAP [P4S] as the variant, how does the protein stability index read?
Answer: 3.9

Question: For HLYTADFRFDKPKKSRSPASAEAP [P4T], which protein stability index is on record?
Answer: 3.77

Question: For HLYVADFRFDKPKKSRSPASAEAP [P4V], which protein stability index is on record?
Answer: 3.24

Question: For HLYWADFRFDKPKKSRSPASAEAP [P4W], which protein stability index is on record?
Answer: 2.33

Question: Which protein stability index does the source give for HLYYADFRFDKPKKSRSPASAEAP [P4Y] here?
Answer: 2.73

Question: For HLYPCDFRFDKPKKSRSPASAEAP [A5C], which protein stability index is on record?
Answer: 3.06

Question: For HLYPDDFRFDKPKKSRSPASAEAP [A5D], which protein stability index is on record?
Answer: 2.32

Question: For HLYPEDFRFDKPKKSRSPASAEAP [A5E], which protein stability index is on record?
Answer: 2.3

Question: For HLYPFDFRFDKPKKSRSPASAEAP [A5F], which protein stability index is on record?
Answer: 2.63

Question: With HLYPGDFRFDKPKKSRSPASAEAP [A5G] as the variant, how does the protein stability index read?
Answer: 2.62

Question: Which protein stability index does the source give for HLYPHDFRFDKPKKSRSPASAEAP [A5H] here?
Answer: 3.06

Question: Which protein stability index does the source give for HLYPIDFRFDKPKKSRSPASAEAP [A5I] here?
Answer: 3.5

Question: With HLYPKDFRFDKPKKSRSPASAEAP [A5K] as the variant, how does the protein stability index read?
Answer: 2.97

Question: Which protein stability index does the source give for HLYPLDFRFDKPKKSRSPASAEAP [A5L] here?
Answer: 3.02

Question: With HLYPMDFRFDKPKKSRSPASAEAP [A5M] as the variant, how does the protein stability index read?
Answer: 2.48

Question: For HLYPNDFRFDKPKKSRSPASAEAP [A5N], which protein stability index is on record?
Answer: 2.29

Question: Which protein stability index does the source give for HLYPPDFRFDKPKKSRSPASAEAP [A5P] here?
Answer: 4.01

Question: Which protein stability index does the source give for HLYPQDFRFDKPKKSRSPASAEAP [A5Q] here?
Answer: 2.16

Question: For HLYPRDFRFDKPKKSRSPASAEAP [A5R], which protein stability index is on record?
Answer: 3.21

Question: With HLYPSDFRFDKPKKSRSPASAEAP [A5S] as the variant, how does the protein stability index read?
Answer: 2.69

Question: For HLYPTDFRFDKPKKSRSPASAEAP [A5T], which protein stability index is on record?
Answer: 3.11

Question: Which protein stability index does the source give for HLYPVDFRFDKPKKSRSPASAEAP [A5V] here?
Answer: 3.6

Question: For HLYPWDFRFDKPKKSRSPASAEAP [A5W], which protein stability index is on record?
Answer: 1.63

Question: For HLYPYDFRFDKPKKSRSPASAEAP [A5Y], which protein stability index is on record?
Answer: 2.79

Question: With HLYPAAFRFDKPKKSRSPASAEAP [D6A] as the variant, how does the protein stability index read?
Answer: 2.12

Question: For HLYPACFRFDKPKKSRSPASAEAP [D6C], which protein stability index is on record?
Answer: 2.52

Question: Which protein stability index does the source give for HLYPAEFRFDKPKKSRSPASAEAP [D6E] here?
Answer: 2.1

Question: For HLYPAGFRFDKPKKSRSPASAEAP [D6G], which protein stability index is on record?
Answer: 3.23

Question: Which protein stability index does the source give for HLYPAHFRFDKPKKSRSPASAEAP [D6H] here?
Answer: 3

Question: Which protein stability index does the source give for HLYPAIFRFDKPKKSRSPASAEAP [D6I] here?
Answer: 1.47

Question: Which protein stability index does the source give for HLYPAKFRFDKPKKSRSPASAEAP [D6K] here?
Answer: 2.22

Question: With HLYPALFRFDKPKKSRSPASAEAP [D6L] as the variant, how does the protein stability index read?
Answer: 2.61

Question: For HLYPAMFRFDKPKKSRSPASAEAP [D6M], which protein stability index is on record?
Answer: 1.55

Question: Which protein stability index does the source give for HLYPANFRFDKPKKSRSPASAEAP [D6N] here?
Answer: 2.82

Question: Which protein stability index does the source give for HLYPAPFRFDKPKKSRSPASAEAP [D6P] here?
Answer: 3.19

Question: Which protein stability index does the source give for HLYPAQFRFDKPKKSRSPASAEAP [D6Q] here?
Answer: 2.18

Question: With HLYPARFRFDKPKKSRSPASAEAP [D6R] as the variant, how does the protein stability index read?
Answer: 2.59

Question: With HLYPASFRFDKPKKSRSPASAEAP [D6S] as the variant, how does the protein stability index read?
Answer: 3.17

Question: Which protein stability index does the source give for HLYPATFRFDKPKKSRSPASAEAP [D6T] here?
Answer: 2.48

Question: With HLYPAWFRFDKPKKSRSPASAEAP [D6W] as the variant, how does the protein stability index read?
Answer: 2.87

Question: Which protein stability index does the source give for HLYPADARFDKPKKSRSPASAEAP [F7A] here?
Answer: 4.81

Question: Which protein stability index does the source give for HLYPADCRFDKPKKSRSPASAEAP [F7C] here?
Answer: 4.29

Question: With HLYPADDRFDKPKKSRSPASAEAP [F7D] as the variant, how does the protein stability index read?
Answer: 4.63

Question: Which protein stability index does the source give for HLYPADERFDKPKKSRSPASAEAP [F7E] here?
Answer: 5.23

Question: For HLYPADGRFDKPKKSRSPASAEAP [F7G], which protein stability index is on record?
Answer: 4.42

Question: Which protein stability index does the source give for HLYPADHRFDKPKKSRSPASAEAP [F7H] here?
Answer: 3.98

Question: Which protein stability index does the source give for HLYPADIRFDKPKKSRSPASAEAP [F7I] here?
Answer: 3.94

Question: For HLYPADKRFDKPKKSRSPASAEAP [F7K], which protein stability index is on record?
Answer: 4.71

Question: For HLYPADLRFDKPKKSRSPASAEAP [F7L], which protein stability index is on record?
Answer: 4.49

Question: For HLYPADMRFDKPKKSRSPASAEAP [F7M], which protein stability index is on record?
Answer: 4.38

Question: For HLYPADNRFDKPKKSRSPASAEAP [F7N], which protein stability index is on record?
Answer: 4.15

Question: Which protein stability index does the source give for HLYPADPRFDKPKKSRSPASAEAP [F7P] here?
Answer: 4.24

Question: Which protein stability index does the source give for HLYPADQRFDKPKKSRSPASAEAP [F7Q] here?
Answer: 4.62

Question: Which protein stability index does the source give for HLYPADRRFDKPKKSRSPASAEAP [F7R] here?
Answer: 4.22

Question: For HLYPADSRFDKPKKSRSPASAEAP [F7S], which protein stability index is on record?
Answer: 4.25

Question: With HLYPADTRFDKPKKSRSPASAEAP [F7T] as the variant, how does the protein stability index read?
Answer: 4.25

Question: Which protein stability index does the source give for HLYPADVRFDKPKKSRSPASAEAP [F7V] here?
Answer: 4.62

Question: Which protein stability index does the source give for HLYPADWRFDKPKKSRSPASAEAP [F7W] here?
Answer: 2.09

Question: Which protein stability index does the source give for HLYPADYRFDKPKKSRSPASAEAP [F7Y] here?
Answer: 3.29

Question: For HLYPADFAFDKPKKSRSPASAEAP [R8A], which protein stability index is on record?
Answer: 2.61

Question: Which protein stability index does the source give for HLYPADFCFDKPKKSRSPASAEAP [R8C] here?
Answer: 2.8

Question: Which protein stability index does the source give for HLYPADFDFDKPKKSRSPASAEAP [R8D] here?
Answer: 4.13

Question: With HLYPADFEFDKPKKSRSPASAEAP [R8E] as the variant, how does the protein stability index read?
Answer: 3.93

Question: For HLYPADFFFDKPKKSRSPASAEAP [R8F], which protein stability index is on record?
Answer: 2.37

Question: For HLYPADFGFDKPKKSRSPASAEAP [R8G], which protein stability index is on record?
Answer: 2.53

Question: Which protein stability index does the source give for HLYPADFHFDKPKKSRSPASAEAP [R8H] here?
Answer: 2.82

Question: Which protein stability index does the source give for HLYPADFIFDKPKKSRSPASAEAP [R8I] here?
Answer: 2.03

Question: For HLYPADFKFDKPKKSRSPASAEAP [R8K], which protein stability index is on record?
Answer: 3.3

Question: With HLYPADFLFDKPKKSRSPASAEAP [R8L] as the variant, how does the protein stability index read?
Answer: 1.77

Question: For HLYPADFMFDKPKKSRSPASAEAP [R8M], which protein stability index is on record?
Answer: 2.64

Question: For HLYPADFNFDKPKKSRSPASAEAP [R8N], which protein stability index is on record?
Answer: 3.1

Question: For HLYPADFPFDKPKKSRSPASAEAP [R8P], which protein stability index is on record?
Answer: 4.07

Question: With HLYPADFQFDKPKKSRSPASAEAP [R8Q] as the variant, how does the protein stability index read?
Answer: 3.11

Question: Which protein stability index does the source give for HLYPADFSFDKPKKSRSPASAEAP [R8S] here?
Answer: 2.05

Question: For HLYPADFTFDKPKKSRSPASAEAP [R8T], which protein stability index is on record?
Answer: 2.44

Question: Which protein stability index does the source give for HLYPADFVFDKPKKSRSPASAEAP [R8V] here?
Answer: 1.6
